According to US20250312499A1 (RADIONETICS ONCOLOGY, published 2025):
Numbered stars: 1 amine (or outer) side, 2 acyl side, 3 side chain; on linkers, the order of the positions; unused ones are H or OH. Square brackets hold non-standard residues; d marks the D form. * marks the point of attachment. X2 = 4‑amino‑1‑((3-fluoro-4-methylbenzyl)glycyl)piperidine‑4‑carboxylic acid, Cc1ccc(CN(CC(=O)N2CCC(N[*:1])(C(=O)[*:2])CC2)[*:3])cc1F; X10 = 3‑(2-(2-(3-(4-iodophenyl)propanamido)ethoxy)ethoxy)propanoyl, O=C(CCc1ccc(I)cc1)NCCOCCOCCC(=O)*; DOTA = O=C(O)CN1CCN(CC(=O)O)CCN(CC(=O)*)CCN(CC(=O)O)CC1; Api(1-amidino) = N=C(N)N1CCC(N)(C(=O)O)CC1; 4Pal = N[C@@H](Cc1ccncc1)C(=O)O; d4Pal = N[C@H](Cc1ccncc1)C(=O)O; Ahx = NCCCCCC(=O)O; azaGly = NNC(=O)O

target: T1, human kisspeptin receptor (KISS1R) (human, UniProt Q969F8 1-398); experiment: radioligand competition, hKISS1R membranes; legend: A is <10 nM
T1 construct: whole, on cells; Assayed as crude membrane fractions of tetracycline-induced Flp-In T-Rex 293 cells expressing the receptor; also called GPR54; hKiSSR
Protocol: The cells are grown to 85-100% confluence on standard tissue culture dishes in Dulbecco's Modified Eagles Medium (DMEM) (Corning) supplemented with 10% FBS (Gemini), 1% penicillin-streptomycin-glutamine (Gibco), 500 μg/mL hygromycin, and 15 μg/mL blastacidin. 48 hrs prior to preparing membranes 10 μg/ml of tetracycline is added to the culture media to induce receptor expression. To prepare membranes, cells are scraped and collected in 1× Dulbecco's phosphate buffered saline (Corning) and then pelleted at 1000 RPMs. The cell pellet is reconstituted in membrane preparation buffer (20 mM HEPES, 6 mM MgCl₂ and 1 mM EGTA, protease inhibitor tablets (Pierce), pH 7.4) and placed in a cell disruption vessel (Parr Instrument company) at 1000 PSI for 30 min on ice. The pressurized contents are then released and spun down at 1000 RPMs and the supernatant is collected and further centrifuged at 15,000 RPMs to pellet the membranes. The membrane pellet is resuspended in membrane preparation buffer, snap frozen and stored at −80° C. for later use.
Assay contents are then filtered through unifilter CF/C: microplates (PerkinElmer) pre-soaked with 0.5% BSA and washed with 9×400 μL of cold wash buffer (10 mM HEPES, 500 mM NaCl, 0.1% Tween-20, pH7.4). Assay plates are read using a Microbeta² (PerkinElmer) and Ki values for compounds are determined using a GraphPad Prism 9.3 non-linear regression analysis.

T1 sequence (Q969F8 whole entry): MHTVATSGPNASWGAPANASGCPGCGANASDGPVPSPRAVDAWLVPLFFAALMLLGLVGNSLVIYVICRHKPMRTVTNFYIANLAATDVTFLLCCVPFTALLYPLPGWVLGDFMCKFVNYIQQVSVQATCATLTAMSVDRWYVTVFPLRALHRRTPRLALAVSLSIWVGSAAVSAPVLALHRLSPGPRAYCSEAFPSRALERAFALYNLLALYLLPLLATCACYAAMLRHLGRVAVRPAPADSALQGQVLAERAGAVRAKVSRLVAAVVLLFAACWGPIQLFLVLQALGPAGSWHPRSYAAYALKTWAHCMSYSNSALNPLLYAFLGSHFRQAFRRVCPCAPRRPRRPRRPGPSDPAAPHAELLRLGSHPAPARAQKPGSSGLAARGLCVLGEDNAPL

Ki [nM] | Binder
< 10 | {DOTA-Ahx}-[dY][dW]NTF[azaGly]L[X2]W-NH2 (also: lutetium(III) chelated by DOTA, also called 1-Lu) [Lu Complex of Compound 1]
< 10 | {DOTA-Ahx}-[dY][dW]NTF[azaGly]L[X2][4Pal]-NH2 (also: nonradioactive indium(III) chelated by DOTA, also called 105-In) [In Complex of Compound 105]
< 10 | {DOTA}-G[dY][d4Pal]NTF[azaGly]L[X2]Y-NH2 (also: nonradioactive indium(III) chelated by DOTA, also called 193-In) [Indium complex of Compound 193]
< 10 | X10-[dY]K(DOTA)NTF[azaGly]L[Api(1-amidino)]W-NH2 (also: indium(III) chelated by DOTA on Lys, also called 196-In) [In Complex of Compound 196]
< 10 | {DOTA-Ahx}-F[azaGly]L[X2]W-NH2 (also: nonradioactive indium(III) chelated by DOTA, also called 2-In) [In Complex of Compound 2]
< 10 | {DOTA-Ahx}-[dY][dW]NTF[azaGly]L[X2]W-NH2 (also: nonradioactive gallium(III) chelated by DOTA, also called 1-Ga) [Ga Complex of Compound 1]
< 10 | {DOTA-Ahx}-[dY][dW]NTF[azaGly]L[X2]W-NH2 (also: nonradioactive indium(III) chelated by DOTA, also called 1-In) [In Complex of Compound 1]
< 10 | {DOTA-Ahx}-[dY][dW]NTF[azaGly]L[Api(1-amidino)]W-NH2 (also: nonradioactive indium(III) chelated by DOTA, also called 6-In) [In Complex of Compound 6]
